From patent US20050054571A1, “Antimicrobial proteins from the SPO1 bacteriophage” (Rice University, priority 2003, published 2005)

Key:
[1] = test system: bacterial DNA, RNA, and protein synthesis; conditions: uninfected cells of either B. subtilis or E. coli; Wei and Stewart, 1993, 1995; cited from earlier work
B. subtilis [2] = test: Effect of induced expression of cloned SPO1 genes on growth and viability of B. subtilis (liquid medium and colony formation); type: cell-based; conditions: cloned gene(s) expressed from IPTG-inducible promoter, * = lethality conclusion based on failure to clone, ** = data not conclusive
Source text: (§1) For analysis of antimicrobial activity we first cloned most of the 24 host-takeover genes (genes 37-60) singly or in multiple gene combinations into a B. subtilis/E. coli shuttle vector (pPW19) under control of an IPTG-inducible promoter (Wei and Stewart, 1993). […] These remaining genes are being cloned using expression vectors with more tightly regulated promoters, such as pJONEX4 (Sayers, 1996), pET101, or pX (Kim et al., 1996). The transformed E. coli and B. subtilis were used to determine the antimicrobial activity, if any, of the cloned genes. The effect of induction on bacterial growth and viability was measured both in liquid medium and by colony formation. Definitive establishment of lethality was shown by loss of the ability to form colonies even after removal from the inducing agent. Indication of probable lethality was based on total inability to form colonies under inducing conditions.

E. coli = test: Effect of induced expression of cloned SPO1 genes on growth and viability of E. coli (liquid medium and colony formation); type: cell-based; conditions: cloned gene(s) expressed from IPTG-inducible promoter, * = lethality conclusion based on failure to clone, ** = data not conclusive
Source text: as §1

[3] = test system: E. coli strain DH5(pPW27); test: Killing of E. coli by IPTG-induced expression in liquid medium, viable cells counted by plating without inducer (FIG. 8); type: cell-based; conditions: within three hours after induction at time 0 (0.2 mM IPTG), plating in the absence of inducer
Method: FIG. 8. Expression of SPO1 GP44 in E. coli. Cells of E. coli strain DH5(pPW27), which expresses SPO1 gene 44 from an IPTG-inducible promoter, were transformed either with vector pACYC177 or with plasmid pPW40, in which the mutant ipoB gene had been cloned in pACYC177. Aliquots of the two cultures were induced by adding 0.2 mM IPTG at time 0, and were assayed for viable cells at various times thereafter, by plating on media lacking IPTG. Open symbols, no IPTG; Closed symbols, 0.2 mM IPTG added at time 0; Squares, mutant rpoB; and Circles, no mutant rpob. Viable cell count is expressed in cells/ml ×10^−6.
(§2) In cells growing in liquid medium, expression of the cloned gene 44 was induced at time 0. At subsequent times, the number of cells remaining viable was measured by plating in the absence of inducer. More than 99% of the cells were killed within three hours.

[4] = test system: bacterial DNA, RNA, and protein synthesis; test: DNA, RNA and protein synthesis in uninfected bacteria expressing cloned SPO1 genes; type: cell-based, B. subtilis or E. coli; conditions: expression of cloned gene(s) in uninfected cells
Method: Pulse Labeling: Rates of synthesis of host and phage RNA or protein were measured in C4 medium as described previously (Wei and Stewart, 1993), by pulse-labeling for 5 minutes with [5-^3H]uridine, or [4,5-^3H]leucine, precipitating with TCA, and counting the precipitate. Since SPO1 DNA contains hmUra in place of thymine, host DNA synthesis could be measured independently by pulsing with [methyl-^3H]thymidine. Phage DNA synthesis was measured by pulsing with [2,8-^3H]adenine, and measuring alkali-stable, TCA-precipitable counts. Pulsing with [2,8-^3H]adenine measures host as well as phage DNA synthesis, but most host DNA synthesis has been shut off by the time that phage replication begins, even in mutant infections, so incorporation of label after 12 minutes is overwhelmingly into phage DNA. The time given for each pulse is the time at which the pulse began.
Adding gene 50 to the 51 clone increases its lethal efficiency, as does combining all 3 genes in a single clone. […] Mutants resistant to genes 51/50 have been isolated, but the mutant gene(s) have not yet been identified. […] The effects on DNA and protein synthesis are probably indirect effects of the inhibition of host RNA synthesis.
The simplest hypothesis as to how GP44/50/51 regulate gene expression is that they interact with the host's RNAP to change its transcriptional specificity. […]

B. subtilis [5] = test: Effect of gene expression on cell division of B. subtilis; type: cell-based; conditions: expression of the gene alone in B. subtilis
Source text: Genes 58-56: Expression of the whole operon is lethal to both species. […] Infection by SPO1 inhibits cell division, and a gene 56 mutation prevents that inhibition. B. subtilis mutants resistant to GP56 have been isolated, but the mutant gene(s) has not yet been identified.

bacteria = test: Toxicity or lethality of expression of cloned SPO1 genes, bacterium not given; type: cell-based
Source text: as §1, §2

Molecule | effect of expression on bacterial RNA synthesis and viability [1] | Lethality, B. subtilis (B. subtilis [2]; listed as 44) | Lethality, E. coli (E. coli; listed as 44) | cells killed [3] | effect of expression on bacterial DNA, RNA and protein synthesis [4] | effect on cell division (B. subtilis [5]) | Lethality, B. subtilis (B. subtilis [2]; listed as 56) | toxicity or lethality of expression (bacteria) | Lethality, E. coli (E. coli) | Lethality, B. subtilis (B. subtilis [2]; listed as 51) | Lethality, E. coli (E. coli; listed as 51)
Gene 44: product of SPO1 host-takeover gene 44, SEQ ID NO: 8 (protein, SPO1 Bacteriophage) MAKSNNVYVVNGEEKVSTLAEVAKVLGVSRVSKKDVEEGKYDVVVEEAAVSLADTEEVVEEVVTEEEDILEGVEVVEDEEEEEAAEDVEEPTSEEDSEDEWEEGYPVATEVEEDEDEEIEYPEVGDFEDEKAIKKYIKGLTDEQLQAWCELEGAEWVENEHRNINRMRMAMAIKAVHFPELAKKPSSKKKSKYAEYTTEELVEMAIDNNVEVRDDKGNERILRMYTIIALREAGLIS | caused the shutoff of bacterial RNA synthesis and cell death | Lethal | Lethal | More than 99% | inhibiting DNA, RNA, and protein synthesis |  |  |  |  |  | 
Gene 56: product of SPO1 host-takeover gene 56, SEQ ID NO: 20 (protein, SPO1 Bacteriophage) MFKYTDRSVRQYIERQQRSAMLEQEQAEKDKKERRKAGLLFFGTIVVLVAVVAVYIVPQSLDAMWHENYEKPAQEAARN |  |  |  |  |  | specifically inhibiting cell division, without affecting DNA synthesis or chromosomal segregation | Lethal | lethal effect | Mildly toxic |  | 
Gene 51: product of SPO1 host-takeover gene 51, SEQ ID NO: 15 (protein, SPO1 Bacteriophage) MAKINKGYVANFIEENGFPEQGHFEEKKDLQAFYKHLSTEQLEEWVELEGLEVKDTDSDSIYRMRLCMAILYLNFPKKTAGKKKASPYKHISLEELVQMATDNDIEVKHTDSDKILRMRTIMALKEAGKLG |  |  |  |  | inhibiting DNA, RNA, and protein synthesis |  |  |  |  | Lethal | Lethal
